The source of these data is US20170145086A1 (VISTERRA, published 2017).

Test [1] deals with T1, HA-GCN4 hAPRIL (amino acid residues 105-250) (human, UniProt O75888 105-250).
T1 construct: Bought (R&D Systems); also called HA-tagged GCN4 human APRIL; HA-GCN4-huAPRIL; not shown: N-terminal HA tag; GCN4 isoleucine zipper oligomerization domain
T1 sequence: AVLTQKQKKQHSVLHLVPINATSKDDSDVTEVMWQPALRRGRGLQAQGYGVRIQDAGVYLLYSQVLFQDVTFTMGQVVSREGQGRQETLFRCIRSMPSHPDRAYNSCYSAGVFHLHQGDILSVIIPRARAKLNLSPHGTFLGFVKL
The test is described as follows: indirect ELISA on human APRIL; row printed 4504, legend paragraph 738 says 4540. In general terms: An ELISA detects its analyte on a solid surface through an enzyme-linked reagent.

Test [2] deals with T1, HA-GCN4 hAPRIL (amino acid residues …). In words: cell-based or functional assay.
The target is the same in test [3]. The test is described as follows: blocking ELISA; blocked: human APRIL binding to BCMA-Fc. In a few lines:
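HA-GCN4-tagged human APRIL (15 ng/mL) preincubated 1 h at 30 °C with antibody (0.03–30 μg/mL), then added 1 h at 30 °C to plates coated with BCMA-Fc. Bound APRIL detected with anti-HA-HRP/TMB at 450 nm; IC₅₀ from 4-parameter fit of antibody titration curves.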

The target of test [4] is T2, HA-GCN4 mAPRIL (amino acid residues 96-241) (mouse, UniProt Q9D777 96-241, Assembles as a homotrimer through the GCN4 zipper; one protomer is given.).
T2 construct: Bought (R&D Systems); also called HA-tagged mouse APRIL (R&D Systems); recombinant mouse APRIL; not shown: N-terminal HA tag and GCN4 isoleucine-zipper trimerisation domain, with any linker, of the bought R&D Systems protein
T2 sequence: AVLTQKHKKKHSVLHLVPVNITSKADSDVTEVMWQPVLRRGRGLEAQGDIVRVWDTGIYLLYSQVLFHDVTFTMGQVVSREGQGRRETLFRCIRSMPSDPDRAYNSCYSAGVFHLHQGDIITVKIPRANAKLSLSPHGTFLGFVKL
The test is described as follows: indirect ELISA on mouse APRIL; row printed 4504, legend paragraph 738 says 4540.

Test [5] has as its target T1, HA-GCN4 hAPRIL (amino acid residues …). In words: blocking ELISA; blocked: human APRIL binding to TACI-Fc.
For test [6] the target is unchanged. The test is described as follows: indirect ELISA on coated HA-GCN4 human APRIL; EC50 from non-linear regression. From the text:
(§1) Purified antibodies were further characterized for APRIL binding, APRIL species cross reactivity (human APRIL vs. mouse APRIL), and receptor blocking activity using TACI-Fc. For binding, an APRIL-based indirect ELISA was used to determine by first approximation the relative affinity of purified anti-APRIL antibodies to either human APRIL or mouse APRIL. ELISA method was as generally described above. […] Blocking and wash steps were completed as described. Binding of anti-APRIL antibodies to APRIL was quantified using an 8 point dilution of test antibody that spanned over a four log scale. Antibody binding to APRIL was detected using a rabbit anti-mouse IgG (H+L)-HRP conjugate (Jackson ImmunoResearch Laboratories). Antibody binding data was analyzed by non-linear regression analysis using a 3 parameter fit to determine max binding and apparent EC₅₀ values. […] Mouse specific antibody Apry-1-1 (Adipogen) was likewise used for quantification of antibody binding to mouse APRIL.

Test [7] shares this target. The test is described as follows: indirect ELISA on HA-GCN4 human APRIL, 3-parameter fit. As to the method:
FIG. 5 depicts the binding of anti-APRIL antibodies to human APRIL. Relative binding of select anti-APRIL antibodies was measured by indirect ELISA. Select antibodies based on prior hybridoma screening were recombinantly produced (based on immunoglubin VH and VL gene sequencing) as described. HA-tagged GCN4 human APRIL R&D Systems was used as source of APRIL. Binding data was analyzed by non-linear regression using a three parameter fit.
as §1

The target in test [8] is T2, HA-GCN4 mAPRIL (amino acid residues …). In words: blocking ELISA; blocked: mouse APRIL binding to human BCMA-Fc. As to the method: Recombinant TACI-Fc or BCMA-Fc was coated on 96 well plates in 0.1 M carbonate-bicarbonate buffer (pH 9.6), overnight at 4° C. Plates were washed three times with 1×PBST (PBS+0.025% Tween 20) followed by blocking with 1% BSA in 1×PBS, 37° C. for 1 hour. All subsequent wash steps were carried out with 1×PBST. To assess antibody blocking, either 15 ng/mL or 50 ng/mL HA-GCN4-huAPRIL was preincubated with varying antibody concentrations ranging from 0.03-30 μg/mL in binding buffer comprised of 1% BSA and 0.025% Tween-20 in 1×PBS. Preincubation was carried out at 30° C. for 1 hour with mixing. Antibody-APRIL premix with 50 ng/mL APRIL or 15 ng/mL APRIL was then added to TACI-Fc coated or BCMA-Fc coated plates, respectively, and incubated for an additional hour at 30° C. HA-tagged APRIL binding to either receptor was quantified using a goat polyclonal anti-HA tag-HRP antibody (Abcam) added at a 1:10000 dilution followed by colorimetric development using 100 μl/well of freshly prepared TMB substrate (KPL) carried out for up to 30 minutes at room temperature before quenching enzymatic reaction by the addition of 1N sulfuric acid. ELISA signal was quantified by absorbance at 450 nm. ELISA data was analyzed by non-linear regression. IC₅₀ values were calculated based on a 4 parameter fit of antibody titration curves. […]

Values joined by “and” are separate entries in the source; they are usually repeats but may differ in a detail not shown here. Identical values can stand only once. A value given as a limit tells only on which side of the number the result lay.

B1: monoclonal antibody 4540 (antibody, V domains shown)
VH: QVQLQQSGPELVKPGASVKISCKASGYTFADYYINWVKQRPGQGLEWIGWIFPGSGSTYYNEKFKGKATLTVDKSSSTAYMLLSSLTSEDSAVYFCARGDSGRAMDYWGQGTSVTVSS
VL: DIQMTQSPSSLSASLGGKVTITCKASQDINKYIAWYQHKPGKGPRLLIHYTSTLQSGIPSRFSGSGSGRDYSFSISNLEPEDNATYYCLQYDNLLTFGAGTKLELK
notes: mouse-derived
What is called EC50 is the concentration that produces a half-maximal response. As a reminder, the IC50 is the concentration that gives 50% inhibition. Read a high IC50 as lower potency. On to B1, for which the EC50 in test [1] amounted to 1.39 pM; in test [4] it was 1.51 pM. Moreover, the “IC50 (inhibition of APRIL-mediated BCMA NFκB signaling)” value in test [2] is around 0.81 nM. The “IC50 (inhibition of APRIL-mediated TACI NFκB signaling)” value in test [2] is around 2.25 nM. Also, the IC50 in test [3] turned out to be 0.67 nM; in test [5], 0.4 nM. Further, the results for the “Relative Activity (normalised to 2419)” value in test [3] and in test [5] were 2.85 and 1.45, respectively.

B2: monoclonal antibody 2218 (antibody, mouse IgG2, V domains shown)
VH: DVQLQESGPGLVKPSQSLSLTCSVTGYSITSGYYWNWIRQFPGNKLEWMGYISYDGYNNYNPSLKNRISITRDTSKNQFFLKLNSVTTEDTATYYCANYYDYEDWYFGVWGTGTTVTVSS
VL: DIVLTQSPASLAMSLGKRATISCRASESVSIIGTNSIHWYQQKPGQPPKLLIYHASNLETGVPARFSGSGSRTDFTLTIDPVEEDDVAIYYCLQSRKIPYTFGGGTKLEIK
Take B2: the 50% effective concentration (EC50) was below 0.2 nM in test [6]; 0.0126 µg/mL and 0.085 nM in test [7].

B3: monoclonal antibody 3530 (antibody, mouse IgG2, V domains shown)
VH: QVQLQQSGAELVRPGASVKLSCKASGYTFTDHEMHWVRQTPVHGLEWIGVIDPDTGDTTYNQKFKGKATLTADKSSSTAYMDLRSLTSEDSAVFYCTRWTGGDYWGHGTTLTVSS
VL: DAVMTQTPLSLSVTIGQPASISCKSSQSLLYSDGKTYLNWFQQRPGQSPKRLMYQVSKLDPGIPDRFSGSGSETDFTLKISRVEAEDLGVYYCLQGTYYPYTFGSGTKLEIK
In the case of B3, the “IC50 (read off the curve)” value in test [8] is around 0.3 µg/mL. Moreover, the EC50 in test [7] was 0.058 µg/mL and 0.392 nM.
